B1: CLCN6 (parent)
chain: FQSISLRKIQFNFPYFRSDRDKRD
B2: PLAGL1 (parent)
chain: DPNKMAFGCEECGKKYNTMLGYKR

Variants of: B1
Experiment: protein stability index of a GFP-peptide fusion (GPS, HEK-293T) (PSI 1-6); higher = more stable
Details: c terminus: a fixed tail appended
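Note: lentivirally expressed fusions sorted by FACS into six bins by GFP to DsRed ratio, PSI derived from sequencing read proportions per bin multiplied by bin number.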

Protein stability index, by site and new letter:
D24: C 2.75, I 2.59, P 2, K 1.37, A 1.68, M 1.66, S 2.23, H 2.1, R 1.94, V 1.31, N 1.49, Q 1.37, E 1.93, L 2, Y 1.58, T 2.21, F 1.93
R23: N 1.81, K 1.91, H 1.99, G 2.85, P 3.46, V 1.88, L 1.35, E 1.86, S 1.29, F 2.01, Y 1.28, T 2.25, W 1.26, Q 2.39, I 1.69, M 1.38, D 1.72

Variants of: B2
Experiment: as above
Details: c terminus: a fixed tail appended

Protein stability index, by site and new letter:
E10: H 2.11, R 1.64, A 1.74, Y 1.92, L 1.92, N 2.29, K 2.6, V 2.37, P 2.3, T 2.21, C 1.74, I 2.51, Q 2.54, S 3.23, M 1.96, W 3.11, F 2.4, G 2.3
A6: H 2.53, Q 2.36, S 2.33, K 2.97, M 2.75, V 2.04, I 2.46, F 2.32, T 2.29, Y 2.19, N 2.58, C 2.35, E 3.09, D 2.9, R 2.19, W 2.9, G 2.02, L 3.02, P 2.53
N3: Y 2.14, S 2.87, A 2.21, K 3.1, I 2.19, H 2.61, P 2.26, G 2.8, E 2.52, M 2.82, V 2.69, R 2.25, Q 3.51, C 2.23, L 3.54, F 2.15, W 2.23, T 2.79
E11: R 1.53, M 2.68, Q 1.99, L 3.19, A 2.96, P 2.83, S 2.5, K 2.49, W 1.37, F 1.85, D 2.65, C 1.44, G 1.77, Y 1.92, I 2.45, T 1.9, V 2.79, N 2.52, H 2.28
M5: H 2.73, W 2.35, E 3.31, G 2.81, I 2.38, R 2.36, T 2.88, A 2.63, Q 2.26, V 1.93, Y 2.33, S 2.81, K 2.26, F 2.15, P 2.2, L 2.67, D 3.54, C 3.04, N 2.48
F7: K 2.31, D 2.59, P 2.57, N 2.45, T 2.3, A 3.27, R 1.92, S 3.43, E 3.21, I 2.98, G 3.17, Q 3.45, M 2.58, V 2.43, Y 2.53, C 2.22, W 1.74, H 2.19
D1: L 2.34, I 2.16, H 2.05, T 2.13, R 1.8, G 2.22, C 2.18, A 1.94, K 2.09, P 2.08, S 2.05, M 2.26, Q 2.05, E 1.77, V 2.7, N 3.64
P2: F 2.73, T 2.03, S 2.7, G 2.05, Q 1.92, W 1.82, C 2.28, H 1.86, V 2, Y 2.51, I 1.88, D 2.54, K 2.57, E 2.04, N 2.12, L 2.15, R 3.98, A 2.26, M 3.12
C12: W 2.93, P 4.01, D 4.49, K 4.4, V 4.43, H 2.98, L 3.3, G 4.29, S 3.52, M 3.93, Q 4.24, N 4.1, F 3.44, T 3.78, A 4.36, E 4.78, Y 3.92, R 4.61, I 2.6
N17: G 1.52, F 3.25, C 2.2, A 2.82, E 2.31, D 2.33
K15: T 2.58, P 2.81, E 3.03, S 1.96, H 1.98, I 1.58, Y 1.71, F 1.81, M 1.73, V 2.27, D 3.12, W 2.27, L 2.19, C 2.63, Q 3.14, G 2.3, R 1.52, A 2.73, N 2.99
K4: D 2.53, C 2.45, V 1.98, L 2.85, P 3.01, M 2.6, T 2.61, S 2.48, R 1.64, F 1.61, E 3.3, Y 2.59, N 2.55, W 2.08, A 2.35, G 2.72, H 2.35, I 1.95, Q 2.61
K14: L 1.54, E 3.44, S 2.39, T 3.14, Y 1.95, I 2.46, V 2.37, H 1.99, D 2.98, F 2.23, Q 3.04, P 2.88, W 3.05, R 1.99, A 2.93, G 2.29, M 2.56, N 3.06
G8: L 2.82, Q 1.98, I 2.76, M 1.96, Y 2.21, E 2.74, T 3.12, W 2.03, F 1.68, P 2.31, S 2.19, K 2.14, D 2.73, N 2.74, H 2.5, V 2.92, C 2.19
C9: N 4.01, A 3.38, S 4.08, G 3.67, Y 3.61, K 3.6, E 3.52, I 3.32, F 3.32, D 3.78, P 3.43, V 4.21, L 3.9, R 4.08, Q 4.16, M 3.16, W 3.01, T 4.07
Y16: L 3.25, W 2.72, S 2.62, R 3.4, T 3.51, C 2.58, E 3.2, G 2.17, K 3.16, I 2.13, D 2.88, H 2.73, M 2.71, P 3.07, N 3.04, Q 2.44, F 2.68, A 2.82, V 2.73
G13: Q 2.35, M 1.82, T 2.33, E 2.63, P 3.96, A 2.33, S 2.98, K 2.04, V 1.39, R 2.53, D 2.81, N 2.12, C 1.97, F 1.93, Y 2.32, W 3.27, I 2.49, H 2.45, L 3.01
